Laboratory results reported in patent publication US20200231648A1 (LENTIGEN TECHNOLOGY, published 2020).

Key:
[1] = biological target: T1, CD20-biotin (Miltenyi Biotec) (UniProt P11836 142-188, limits assumed, biotin (site not stated)); test: flow cytometry, CAR T cells stained with CD19-Fc and CD20-biotin
T1 construct: Bought staining reagent, 0.1 ug/sample, detected with streptavidin conjugate; also called recombinant CD20; CD20 biotin reagent
T1 chain (looked up): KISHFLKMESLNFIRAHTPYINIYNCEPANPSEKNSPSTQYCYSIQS
Experimental: (§1) Cells were washed twice and resuspended in 200 ul Staining Buffer before quantitative analysis by flow cytometry.

CD19-Fc (R&D Biosystems) = biological target: T2, CD19-Fc (R&D Biosystems) (UniProt P15391 20-291); test: as above
T2 construct: Bought staining reagent, 1 ug/sample; also called recombinant CD19; not shown: Fc part of the bought reagent (detected with goat anti-human Fc-gamma)
T2 sequence (looked up): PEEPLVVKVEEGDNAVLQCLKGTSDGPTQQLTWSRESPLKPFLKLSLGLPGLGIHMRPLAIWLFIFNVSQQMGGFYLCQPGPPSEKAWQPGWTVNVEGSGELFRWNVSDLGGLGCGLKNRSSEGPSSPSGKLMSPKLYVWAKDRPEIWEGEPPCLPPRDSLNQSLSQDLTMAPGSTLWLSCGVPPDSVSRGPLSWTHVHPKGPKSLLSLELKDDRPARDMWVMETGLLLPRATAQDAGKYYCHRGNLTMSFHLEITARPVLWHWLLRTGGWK
Experimental: as §1

- binding result [1]: no binding (tested: 0.1 ug/sample)
- binding result (CD19-Fc (R&D Biosystems)): no binding (tested: 1 ug/sample)
B1: CAR LTG2200 (LP-2200-CD8 TM-41BB-CD3zeta) (other)
chain: QVQLQQSGPGLVKPSQTLSLTCAISGDSVSSNSAAWNWIRQSPSRGLEWLGRTYYRSKWYNDYAVSVKSRITINPDTSKNQFSLQLNSVTPEDTAVYYCAREVTGDLEDAFDIWGQGTMVTVSSGGGGSGGGGSGGGGSDIQMTQSPSSLSASVGDRVTITCRASQTIWSYLNWYQQRPGKAPNLLIYAASSLQSGVPSRFSGRGSGTDFTLTISSLQAEDFATYYCQQSYSIPQTFGQGTKLEIKAAATTTPAPRPPTPAPTIASQPLSLRPEACRPAAGGAVHTRGLDFACDIYIWAPLAGTCGVLLLSLVITLYCKRGRKKLLYIFKQPFMRPVQTTQEEDGCSCRFPEEEEGGCELRVKFSRSADAPAYQQGQNQLYNELNLGRREEYDVLDKRRGRDPEMGGKPRRKNPQEGLYNELQKDKMAEAYSEIGMKGERRRGKGHDGLYQGLSTATKDTYDALHMQALPPR
notes: Chimeric antigen receptor with the m971 anti-CD22 scFv on primary human T cells; The entry includes the leader peptide; also called 22-BBz; CAR22 LTG2200
